Earlier results in patent publication US7718413B2, “Glycosylation variants of BACE” (Elan Pharmaceuticals, Inc., priority 2003, dated 2010).
Non-standard residues stand in square brackets, D forms with d. No end group written: not given here. Sta = CC(C)C[C@H](N)[C@@H](O)CC(=O)O

Molecular target: β-secretase (Homo sapiens, UniProt P56817)
Details: previous studies

Chain of β-secretase (P56817 46-501): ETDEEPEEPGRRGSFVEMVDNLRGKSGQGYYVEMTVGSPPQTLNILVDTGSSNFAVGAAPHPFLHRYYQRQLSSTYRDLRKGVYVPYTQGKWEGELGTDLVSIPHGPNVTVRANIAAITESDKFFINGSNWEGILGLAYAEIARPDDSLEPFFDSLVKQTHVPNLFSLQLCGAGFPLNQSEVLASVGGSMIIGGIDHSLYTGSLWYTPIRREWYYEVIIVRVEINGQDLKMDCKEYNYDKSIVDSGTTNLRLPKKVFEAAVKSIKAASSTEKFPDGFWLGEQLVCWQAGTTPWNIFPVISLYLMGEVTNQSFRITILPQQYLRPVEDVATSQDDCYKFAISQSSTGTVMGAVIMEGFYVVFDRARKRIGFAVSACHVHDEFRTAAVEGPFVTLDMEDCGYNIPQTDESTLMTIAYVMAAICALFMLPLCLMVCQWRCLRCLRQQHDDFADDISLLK

Substance: KTEEISEVN[sta]VAEF (KTEEISEVN[Sta]VAEF) [P10-P4′staD→V]
- inhibitor of the enzyme (potency in words): reasonably potent inhibitor
